Test results published in patent publication US20170247465A1, “COMBINATION THERAPY FOR TREATMENT OF CANCER” (OncoMed Pharmaceuticals, Inc., priority 2014, published 2017).
Entries after “also recorded” stand apart in the source; their conditions may differ.

Columns and labels:
Assay type in all cases: in vivo, NOD/SCID mice
[1] = test system: OMP-LU77 lung tumor cells; experiment: OMP-LU77 lung tumor xenograft, staggered dosing of vantictumab and paclitaxel (Example 6); conditions: vantictumab 25 mg/kg administered two days prior to paclitaxel 15 mg/kg, every other week; versus same day, paclitaxel alone; FIG. 4
Protocol: (§1) FIG. 4. Inhibition of lung tumor growth in vivo by a Wnt pathway inhibitor in combination with a taxane using a staggered dosing schedule. OMP-LU77 lung tumor cells were injected subcutaneously into NOD/SCID mice. […] Vantictumab was administered at 25 mg/kg and paclitaxel at 15 mg/kg. Agents were administered every other week and administered intraperitoneally. Data is shown as tumor volume (mm^3) over days post treatment.
OMP-LU77 is a patient-derived non-small cell lung (NSCLC) tumor. Single cell suspensions of xenograft OMP-LU77 lung tumor cells (50,000 cells) were injected subcutaneously into NOD/SCID mice. Tumors were allowed to grow 37 days until they had reached an average volume of approximately 200 mm^3. Tumor-bearing mice were randomized into 4 groups (n=8-9 per group). […] Antibodies were dosed at 25 mg/kg, administered every other week. Paclitaxel was dosed at 15 mg/kg, also every other week. Tumor growth was monitored and tumor volumes were measured on the indicated days post-treatment. Data are expressed as mean±SEM.

[2] = test system: OMP-OV40 ovarian tumor cells; experiment: OMP-OV40 ovarian tumor xenograft, staggered dosing of Wnt inhibitors and paclitaxel (Example 11); conditions: Wnt pathway inhibitor 25 mg/kg administered 2 days prior to paclitaxel 20 mg/kg, every two weeks i.p.; versus single agents; FIG. 9
Protocol: FIG. 9A-9B. Inhibition of ovarian tumor growth in vivo by a Wnt pathway inhibitor in combination with a taxane using a staggered dosing schedule. FIG. 9A. OMP-OV40 ovarian tumor cells were injected subcutaneously into NOD/SCID mice. Mice were treated with control antibody (-•-), OMP-18R5 (-▴-), paclitaxel (-▪-), or a combination of OMP-18R5 and paclitaxel, where OMP-18R5 was administered 2 days prior to administration of paclitaxel (-⋄-). […]. OMP-OV40 ovarian tumor cells were injected subcutaneously into NOD/SCID mice. Mice were treated with control antibody (-•-), OMP-54F28 (-▴-), paclitaxel (-▪-), or a combination of OMP-54F28 and paclitaxel, where OMP-54F28 was administered 2 days prior to administration of paclitaxel (-⋄-). OMP-18R5, OMP-54F28 and control antibody were administered at 25 mg/kg and paclitaxel was administered at 20 mg/kg. Agents were administered once every two weeks and administered intraperitoneally. Data is shown as tumor volume (mm^3) over days post treatment.
Single cell suspensions of xenograft OMP-OV40 ovarian tumor cells were injected subcutaneously into 6-8 week old NOD/SCID mice. Tumors were allowed to grow until they reached an average volume of approximately 128 mm^3. […] Tumor growth was monitored and tumor volumes were measured with electronic calipers at the indicated time points. Data are expressed as mean±S.E.M.

[3] = test system: UM-PE13 breast tumor cells; experiment: UM-PE13 breast tumor xenograft, staggered dosing of OMP-18R5 and paclitaxel (Example 2)
Protocol: as §1, with “2.” for “4.”, “breast” for “lung”, “UM-PE13 breast” for “OMP-LU77 lung”, “OMP-18R5” for “Vantictumab”, “20” for “15”, “three weeks” for “other week”
Single cell suspensions of xenograft UM-PE13 breast tumor cells (20,000 cells) were injected subcutaneously into 6-8 week old NOD/SCID mice. UM-PE13 is a triple negative breast cancer. Tumors were allowed to grow 34 days until they reached an average volume of 80 mm^3. The mice were randomized (n=8 per group) and treated with paclitaxel, a combination of OMP-18R5 and paclitaxel administered on the same day, a combination of OMP-18R5 and paclitaxel where the paclitaxel was administered 3 days prior to OMP-18R5, a combination of OMP-18R5 and paclitaxel where OMP-18R5 was administered 3 days prior to the paclitaxel, or a control antibody. Mice were treated once every three weeks with OMP-18R5 at a dose of 25 mg/kg and paclitaxel at a dose of 20 mg/kg. OMP-18R5 and paclitaxel were administered intraperitoneally. Tumor growth was monitored and tumor volumes were measured with electronic calipers at the indicated time points. Data are expressed as mean±S.E.M.

B1: OMP-18R5: anti-FZD antibody, IgG2, also known as vantictumab; heavy chain SEQ ID NO:3, light chain SEQ ID NO:4 (antibody)
heavy: EVQLVESGGGLVQPGGSLRLSCAASGFTFSHYTLSWVRQAPGKGLEWVSVISGDGSYTYYADSVKGRFTISSDNSKNTLYLQMNSLRAEDTAVYYCARNFIKYVFANWGQGTLVTVSSASTKGPSVFPLAPCSRSTSESTAALGCLVKDYFPEPVTVSWNSGALTSGVHTFPAVLQSSGLYSLSSVVTVPSSNFGTQTYTCNVDHKPSNTKVDKTVERKCCVECPPCPAPPVAGPSVFLFPPKPKDTLMISRTPEVTCVVVDVSHEDPEVQFNWYVDGVEVHNAKTKPREEQFNSTFRVVSVLTVVHQDWLNGKEYKCKVSNKGLPAPIEKTISKTKGQPREPQVYTLPPSREEMTKNQVSLTCLVKGFYPSDIAVEWESNGQPENNYKTTPPMLDSDGSFFLYSKLTVDKSRWQQGNVFSCSVMHEALHNHYTQKSLSLSPGK
light: DIELTQPPSVSVAPGQTARISCSGDNIGSFYVHWYQQKPGQAPVLVIYDKSNRPSGIPERFSGSNSGNTATLTISGTQAEDEADYYCQSYANTLSLVFGGGTKLTVLGQPKAAPSVTLFPPSSEELQANKATLVCLISDFYPGAVTVAWKADSSPVKAGVETTTPSKQSNNKYAASSYLSLTPEQWKSHRSYSCQVTHEGSTVEKTVAPTECS
With B1 the “inhibition of tumor growth (tumor volume)” value (shortened to “inhibition of tumor growth”) [1] was “significantly better at inhibiting tumor growth of the OMP-LU77 lung tumor cells than any of the other dosing regimens”, the “inhibition of tumor growth” value [2] was “inhibited tumor growth of the OMP-OV40 ovarian tumor cells to a greater extent than either the Wnt pathway inhibitors or paclitaxel alone; also recorded: inhibited tumor growth” and the “inhibition of tumor growth” value ([3]; OMP-18R5 25 mg/kg administered 3 days prior to paclitaxel 20 mg/kg, every three weeks i.p., versus same day, paclitaxel first, paclitaxel alone, FIG. 2) was “significantly better at inhibiting tumor growth of the UM-PE13 breast tumor cells than any of the other dosing regimens”. For the same molecule, the “tumor regression in individual mice” value ([3]; Wnt pathway inhibitor (OMP-18R5) administered before the taxane (paclitaxel)) was “tumors in several of the individual mice regressed to undetectable levels”.
